Assay results taken from article PMC7229662 (Proceedings of the National Academy of Sciences of the …, 2020).

Target: the molecule itself
Assay: cryo-EM structure

B1: C331S variant of polycystin-2 (residues 53 to 792) (natural protein, human, UniProt Q13563 53-792, looked up)
chain: EIEMQRIRQAAARDPPAGAAASPSPPLSSCSRQAWSRDNPGFEAEEEEEEVEGEEGGMVVEMDVEWRPGSRRSAASSAVSSVGARSRGLGGYHGAGHPSGRRRRREDQGPPCPSPVGGGDPLHRHLPLEGQPPRVAWAERLVRGLRGLWGTRLMEESSTNREKYLKSVLRELVTYLLFLIVLCILTYGMMSSNVYYYTRMMSQLFLDTPVSKTEKTNFKTLSSMEDFWKFTEGSLLDGLYWKMQPSNQTEADNRSFIFYENLLLGVPRIRQLRVRNGSSSIPQDLRDEIKECYDVYSVSSEDRAPFGPRNGTAWIYTSEKDLNGSSHWGIIATYSGAGYYLDLSRTREETAAQVASLKKNVWLDRGTRATFIDFSVYNANINLFCVVRLLVEFPATGGVIPSWQFQPLKLIRYVTTFDFFLAACEIIFCFFIFYYVVEEILEIRIHKLHYFRSFWNCLDVVIVVLSVVAIGINIYRTSNVEVLLQFLEDQNTFPNFEHLAYWQIQFNNIAAVTVFFVWIKLFKFINFNRTMSQLSTTMSRCAKDLFGFAIMFFIIFLAYAQLAYLVFGTQVDDFSTFQECIFTQFRIILGDINFAEIEEANRVLGPIYFTTFVFFMFFILLNMFLAIINDTYSEVKSDLAQQKAEMELSDLIRKGYHKALVKLKLKKNTVDDISESLRQGGGKLNFDELRQDLKGKGHTDAEIEAIFTKYDQDGDQELTEHEHQQMRDDLEKEREDLDLD
- stoichiometry N: 4
